Data reported in patent US20240343803A1 (SHANDONG SIMCERE BIOPHARMACEUTICAL, published 2024).

Experiments:
[1] = target: T1, cynomolgus monkey PVRIG on FlpinCHO-cyno PVRIG cells (cynomolgus monkey, UniProt A0A2K5WVV8 41-322); assay: FACS, FlpinCHO-cyno PVRIG cells
T1 construct: whole, on cells
T1 sequence: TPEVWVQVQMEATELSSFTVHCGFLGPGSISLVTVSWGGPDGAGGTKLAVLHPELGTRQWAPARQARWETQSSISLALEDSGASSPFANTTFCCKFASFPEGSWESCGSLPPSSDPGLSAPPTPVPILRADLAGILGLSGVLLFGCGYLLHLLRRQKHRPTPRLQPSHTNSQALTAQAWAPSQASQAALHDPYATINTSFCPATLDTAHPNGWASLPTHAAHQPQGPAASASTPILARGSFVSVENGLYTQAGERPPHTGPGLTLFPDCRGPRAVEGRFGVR
Protocol: (§1) The antibodies were diluted from the highest concentration of 46 nM (two-fold concentration) with staining buffer by 3.3-fold serial dilution. The diluted antibodies were added to the well containing 50 μL of cell suspension. The plate was placed on a microplate shaker at 400 rpm for 1 minute to fully mix the antibodies and cells, and then incubated at 4° C. for 30 minutes. After the incubation, the cells were washed twice with staining buffer (200 μL per well) and centrifuged at 350×g for 5 minutes to discard the supernatant. The PE goat anti-human IgG Fc antibody (ebioscience, 12-4998-82) was diluted 250 times with staining buffer, added into the washed wells (100 μL per well), mixed well, and stained at 4° C. for 30 minutes. After staining, the cells were washed twice with staining buffer, finally resuspended with 200 μL staining buffer and analyzed by flow cytometry (BD, Canto II). The stronger the signal, the stronger the ability of the antibodies binds to PVRIG. An antibody binding curve was drawn with concentration of antibodies as the abscissa and the corresponding Mean Fluorescence Intensity (MFI) as the ordinate. The AUC value of the curve was calculated by using a Four Parameter Logistic Fit (GraphPadPrism9). The stronger the AUC value, the stronger the ability of the antibodies binds to FlpinCHO-PVRIG and FlpinCHO-cyno PVRIG. […] The binding activity of the antibodies was normalized to the positive control COM701-hIgG1 and SRF813-hIgG1. The higher the percentage value, the stronger the binding ability of the antibodies.
The methods refer to Example 19. The stronger the AUC value, the stronger the ability of the humanized antibodies binds to FlpinCHO-human/cyno PVRIG.

[2] = target: T2, human PVRIG-his (AcroBiosystems, Cat NO. PVG-H52H4) (human, UniProt Q6DKI7 41-171, limits assumed); assay: SPR (BIAcore), antibody captured on Protein A chip, human PVRIG-His analyte
T2 construct: also called human PVRIG protein
T2 sequence (looked up): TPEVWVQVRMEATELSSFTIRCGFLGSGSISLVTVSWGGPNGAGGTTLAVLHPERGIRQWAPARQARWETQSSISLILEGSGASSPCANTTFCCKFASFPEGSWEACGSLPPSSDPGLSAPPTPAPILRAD
Protocol: Biacore was used to detect the specific binding between anti-PVRIG antibody and human PVRIG protein. Protein A chip was used in the BIAcore assay. The time required for the chip to capture the diluted antibody and saturate the binding antigen to reach Rₘₐₓ (Maximum binding capacity, 50 RU) was measured by manual run. […] The affinity of antibody for antigen was measured by multi-cycle kinetics. In each cycle, the antibodies were injected prior to the injection of gradient concentraions of PVRIG proteins allowing the occurrence of antibody-antigen association and dissociation After each cycle, the Protein A chip was regenerated by Glycine, pH 1.5 (to remove the proteins on the chip). The affinity of antibody for antigen was calculated by BIAcore T200 analysis software.
The methods refer to Example 10.

[3] = target: T3, human PVRIG on FlpinCHO-PVRIG cells (human, UniProt Q6DKI7 41-326); assay: FACS, FlpinCHO-PVRIG cells
T3 construct: whole, on cells
T3 sequence (looked up): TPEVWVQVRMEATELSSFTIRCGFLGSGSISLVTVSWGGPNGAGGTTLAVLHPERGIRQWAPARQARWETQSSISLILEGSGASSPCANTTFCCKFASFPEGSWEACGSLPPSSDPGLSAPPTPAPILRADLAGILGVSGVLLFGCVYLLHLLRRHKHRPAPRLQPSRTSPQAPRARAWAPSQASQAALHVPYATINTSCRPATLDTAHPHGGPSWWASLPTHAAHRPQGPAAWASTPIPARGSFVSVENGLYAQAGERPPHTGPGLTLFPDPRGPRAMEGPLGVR
Protocol: as §1, with “The Ham's F12 (Gibico, 21127-022) complete medium containing 10% FBS was then added to terminate the digestion and acquire cell suspension. After counting with a cell counter (Beckman Coulter, Vi-CELL), an appropriate amount of cell suspension was centrifuged at 350×g to remove the supernatant, washed twice with PBS, stained with Zombie violet (Biolegend, 423114) and incubated at room temperature for 20 minutes. After incubation, the cells were added with staining buffer (2% FBS+PBS) to stop staining, centrifuged at 350×g to remove the supernatant, washed twice and resuspended with staining buffer to a density of 2×10⁶ cells/mL. The cells were plated into a 96-well plate (50 μL of cell suspension per well) for further use. The antibodies” for “The antibodies”, “and SRF813-hIgG1.” for “and SRF813-hIgG1. The higher the percentage value, the stronger the binding ability of the antibodies.”

B1: PVRIG-A50-H1 (Fc fusion)
chain: EVQLVESGGGLVQPGGSLRLSCAASGFTFSYYDMSWVRQAPGKGLEWVSTINSNGGRTSYVDSVKGRFTISRDNSKNTLYLQMNSLRAEDTAVYYCVEGDPHNFGLENLSLRDFGSWGQGTMVTVSS
notes: humanized variant of PVRIG-A50; also called A50.VH1; not shown: constant part not restated for the humanized forms; parents are VHH-hinge-CH2-CH3 of human IgG1; detected by anti-human
AUC % to COM701-hIgG1 [1]: 45.2%
AUC % to SRF813-hIgG1 [1]: 55.5%
AUC % to parental Ab [1]: 96%
Kd [2]: 0.0362 nM
koff [2]: 1.48e-05 s⁻¹
kon [2]: 410000 M⁻¹ s⁻¹
AUC % to COM701-hIgG1 [3]: 74.4%
AUC % to SRF813-hIgG1 [3]: 132%
AUC % to parental Ab [3]: 101%

B2: PVRIG-A105-H1 (Fc fusion)
chain: EVQLVESGGGLVQPGGSLRLSCAASGRTFDRHTMSWFRQAPGKEREFVATASRIPGDTYYVDSVKGRFTISRDNAKNSLYLQMNSLRAEDTAVYYCAATSAYCSEVDCYEKGSWYDNWGQGTMVTVSS
notes: humanized variant of PVRIG-A105; also called A105.VH1; not shown: constant part not restated for the humanized forms; parents are VHH-hinge-CH2-CH3 of human IgG1; detected by anti-human
AUC % to COM701-hIgG1 [1]: 81.3%
AUC % to SRF813-hIgG1 [1]: 101%
AUC % to parental Ab [1]: 93%
Kd [2]: 0.932 nM
koff [2]: 0.0013 s⁻¹
kon [2]: 1.39e+06 M⁻¹ s⁻¹
AUC % to COM701-hIgG1 [3]: 123%
AUC % to SRF813-hIgG1 [3]: 185%
AUC % to parental Ab [3]: 99.1%

B3: PVRIG-A105-H4 (Fc fusion)
chain: EVQLVESGGGLVQPGGSLRLSCAASGRTFDRHTMTWFRQAPGKEREFVATASRIPGDTYYSHSVKGRFTISRDNAKNSLYLQMNSLRAEDTAVYYCAATSAYCSEVDCYEKGSWYDNWGQGTMVTVSS
notes: humanized variant of PVRIG-A105; also called A105.VH4; not shown: constant part not restated for the humanized forms; parents are VHH-hinge-CH2-CH3 of human IgG1; detected by anti-human
AUC % to COM701-hIgG1 [1]: 80.3%
AUC % to SRF813-hIgG1 [1]: 99.6%
AUC % to parental Ab [1]: 91.8%
Kd [2]: 0.796 nM
koff [2]: 0.000773 s⁻¹
kon [2]: 972000 M⁻¹ s⁻¹
AUC % to COM701-hIgG1 [3]: 115%
AUC % to SRF813-hIgG1 [3]: 174%
AUC % to parental Ab [3]: 93.1%

B4: PVRIG-A105-H3 (Fc fusion)
chain: EVQLVESGGGLVQPGGSLRLSCAASGRTFDRHTMTWFRQAPGKEREFVATASRIPGDTYYVDSVKGRFTISRDNAKNSVYLQMNSLRAEDTAVYYCAATSAYCSEVDCYEKGSWYDNWGQGTMVTVSS
notes: humanized variant of PVRIG-A105; also called A105.VH3; not shown: constant part not restated for the humanized forms; parents are VHH-hinge-CH2-CH3 of human IgG1; detected by anti-human
AUC % to COM701-hIgG1 [1]: 86.4%
AUC % to SRF813-hIgG1 [1]: 107%
AUC % to parental Ab [1]: 98.8%
Kd [2]: 0.622 nM
koff [2]: 0.000576 s⁻¹
kon [2]: 925000 M⁻¹ s⁻¹
AUC % to COM701-hIgG1 [3]: 125%
AUC % to SRF813-hIgG1 [3]: 189%
AUC % to parental Ab [3]: 101%

B5: PVRIG-A118 (Fc fusion)
chain: QVQLVESGGGLVQAGGSLRLSCAASETYFDLYVMGWYRQAPGKDRELVATITYTGSIKIVDSVKDRFTISRGDAKNTVSLQMSSLKPEDTAVYFCNADPSGLGRKVYWGQGTQVTVSS
notes: heavy chain antibody VHH-hinge-CH2-CH3, human IgG1 constant part; not shown: human IgG1 hinge-CH2-CH3
AUC % to COM701-hIgG1 [1]: 62.4%
AUC % to SRF813-hIgG1 [1]: 76.1%
AUC % to parental Ab [1]: 100%
Kd [2]: 0.483 nM
koff [2]: 0.00102 s⁻¹
kon [2]: 2.12e+06 M⁻¹ s⁻¹
AUC % to COM701-hIgG1 [3]: 136%
AUC % to SRF813-hIgG1 [3]: 191%
AUC % to parental Ab [3]: 100%

B6: PVRIG-A118-H7 (Fc fusion)
chain: EVQLVESGGGLVQPGGSLRLSCAASETYFDLYVMGWYRQAPGKDRELVATITYTGSIKYVDSVKGRFTISRGDAKNSLYLQMNSLRAEDTAVYFCNADPSGLGRKVYWGQGTMVTVSS
notes: humanized variant of PVRIG-A118; also called A118.VH7; not shown: constant part not restated for the humanized forms; parents are VHH-hinge-CH2-CH3 of human IgG1; detected by anti-human
AUC % to COM701-hIgG1 [1]: 19.7%
AUC % to SRF813-hIgG1 [1]: 24%
AUC % to parental Ab [1]: 31.6%
Kd [2]: 1.08 nM
koff [2]: 0.0026 s⁻¹
kon [2]: 2.41e+06 M⁻¹ s⁻¹
AUC % to COM701-hIgG1 [3]: 126%
AUC % to SRF813-hIgG1 [3]: 177%
AUC % to parental Ab [3]: 92.7%

B7: PVRIG-A118-H6 (Fc fusion)
chain: EVQLVESGGGLVQPGGSLRLSCAASETYFDLYVMGWYRQAPGKDRELVATITYTGSIKIVDSVKGRFTISRGDAKNSLYLQMNSLRAEDTAVYYCNADPSGLGRKVYWGQGTMVTVSS
notes: humanized variant of PVRIG-A118; also called A118.VH6; not shown: constant part not restated for the humanized forms; parents are VHH-hinge-CH2-CH3 of human IgG1; detected by anti-human
AUC % to COM701-hIgG1 [1]: 19.9%
AUC % to SRF813-hIgG1 [1]: 24.2%
AUC % to parental Ab [1]: 31.8%
Kd [2]: 1.1 nM
koff [2]: 0.00299 s⁻¹
kon [2]: 2.71e+06 M⁻¹ s⁻¹
AUC % to COM701-hIgG1 [3]: 129%
AUC % to SRF813-hIgG1 [3]: 180%
AUC % to parental Ab [3]: 94.2%

B8: PVRIG-A118-H4 (Fc fusion)
chain: EVQLVESGGGLVQPGGSLRLSCAASETYFDLYVMGWYRQAPGKDRELVATITYTGSIKYVDSVKGRFTISRGDAKNSLSLQMNSLRAEDTAVYYCNADPSGLGRKVYWGQGTMVTVSS
notes: humanized variant of PVRIG-A118; also called A118.VH4; not shown: constant part not restated for the humanized forms; parents are VHH-hinge-CH2-CH3 of human IgG1; detected by anti-human
AUC % to COM701-hIgG1 [1]: 21.3%
AUC % to SRF813-hIgG1 [1]: 26%
AUC % to parental Ab [1]: 34.2%
Kd [2]: 1.21 nM
koff [2]: 0.00327 s⁻¹
kon [2]: 2.69e+06 M⁻¹ s⁻¹
AUC % to COM701-hIgG1 [3]: 132%
AUC % to SRF813-hIgG1 [3]: 185%
AUC % to parental Ab [3]: 97%

B9: PVRIG-A118-H5 (Fc fusion)
chain: EVQLVESGGGLVQPGGSLRLSCAASETYFDLYVMGWYRQAPGKDRELVATITYTGSIKYVDSVKGRFTISRGDAKNSVYLQMNSLRAEDTAVYYCNADPSGLGRKVYWGQGTMVTVSS
notes: humanized variant of PVRIG-A118; also called A118.VH5; not shown: constant part not restated for the humanized forms; parents are VHH-hinge-CH2-CH3 of human IgG1; detected by anti-human
AUC % to COM701-hIgG1 [1]: 21.8%
AUC % to SRF813-hIgG1 [1]: 26.6%
AUC % to parental Ab [1]: 35%
Kd [2]: 1.37 nM
koff [2]: 0.00383 s⁻¹
kon [2]: 2.79e+06 M⁻¹ s⁻¹
AUC % to COM701-hIgG1 [3]: 128%
AUC % to SRF813-hIgG1 [3]: 179%
AUC % to parental Ab [3]: 93.9%
